Source: paper doi:10.1101/2020.10.15.341636 (bioRxiv, 2020)

These binders were tested against T1, SARS-CoV-2 wild type RBD (BEI NR52309) (Severe acute respiratory syndrome …, UniProt P0DTC2) (assay: BLI).

Binder	binding result
mAb 236 IgG (antibody, V domains shown) VH: QVQLVQSGAEVKKPGASVKVSCKASGGTFTSYGINWVRQAPGQGLEWMGWMNPNSGNTGYAQKFQGRVTMTRDTSTSTVYMELSSLRSEDTAVYYCASRGIQLLPRGMDVWGQGTTVTVSS VL: not shown	binds
mAb 324 IgG (antibody, V domains shown) VH: QVQLVQSGAEVKKPGASVKVSCKASGGTFNNYGISWVRQAPGQGLEWMGWMNPNSGNTGYAQKFQGRVTMTRDTSTSTVYMELSSLRSEDTAVYYCARVGDYGDYIVSPFDLWGRGTLVTVSS VL: DIQMTQSPSSLSASVGDRVTITCRASQSITTYLNWYQQKPGKAPKLLIYDASNLETGVPSRFSGSGSGTDFTLTISSLQPEDFATYYCQQSYSTPPTFGQGTKVEIK	binds
mAb 298 IgG (antibody, V domains shown) VH: QVQLVQSGAEVKKPGASVKVSCKASGGTFSTYGISWVRQAPGQGLEWMGWISPNSGGTDLAQKFQGRVTMTRDTSTSTVYMELSSLRSEDTAVYYCASDPRDDIAGGYWGQGTLVTVSS VL: not shown	binds
mAb 52 IgG (antibody, V domains shown) VH: QVQLVQSGAEVKKPGSSVKVSCKASGYTFTSYGISWVRQAPGQGLEWMGGIIPMFGTTNYAQKFQGRVTITADKSTSTAYMELSSLRSEDTAVYYCARDRGDTIDYWGQGTLVTVSS VL: DIQMTQSPSSLSASVGDRVTITCRASQGISNNLNWYQQKPGKAPKLLIYAASSLESGVPSRFSGSGSGTDFTLTISSLQPEDFATYYCQQGNGFPLTFGPGTKVDIK	binds

These binders were tested against T1, SARS-CoV-2 wild type RBD (BEI NR52309) (assay: crystal structure).

Binder	binding result
Fab 298 (Fab, V domains shown) VH: QVQLVQSGAEVKKPGASVKVSCKASGGTFSTYGISWVRQAPGQGLEWMGWISPNSGGTDLAQKFQGRVTMTRDTSTSTVYMELSSLRSEDTAVYYCASDPRDDIAGGYWGQGTLVTVSS VL: not shown	binds
Fab 52 (Fab, V domains shown) VH: QVQLVQSGAEVKKPGSSVKVSCKASGYTFTSYGISWVRQAPGQGLEWMGGIIPMFGTTNYAQKFQGRVTITADKSTSTAYMELSSLRSEDTAVYYCARDRGDTIDYWGQGTLVTVSS VL: DIQMTQSPSSLSASVGDRVTITCRASQGISNNLNWYQQKPGKAPKLLIYAASSLESGVPSRFSGSGSGTDFTLTISSLQPEDFATYYCQQGNGFPLTFGPGTKVDIK	binds
